Data taken from patent US11807881B2, “Polypeptide, fusion polypeptide, and antibiotic against gram-negative bacteria comprising same” (priority 2020, dated 2023).

Experiments:
Format in all cases: cell-based
Cronobacter sakazakii = experiment: Spot test (halo zone); set-up: key: ‘◯’ means production of the halo zone; conditions: C. sakazakii KCTC 2949
From the text: (§1) In the present example, in order to investigate a target bacteria spectrum of the bacteriophage PBPA90 selected in the Examples 1.1 and 1.2 and endolysin LNT101 separated and purifying in the Example 1.3, the antibacterial activity against gram negative bacterium such as Pseudomonas aeruginosa ATCC13388, ATCC9027, ATCC10145, ATCC15692, ATCC15522, ATCC25619, ATCC27853, CCARM2134, CCARM2200, CCARM2029, CCARM2144, CCARM2298, CCARM2326, PR01957, E. coli ATCC8739, Enterobacter cloacae CCARM0252, Klebsiella pneumoniae KCTC2261, Klebsiella aerogenes CCARM16006, Campylobacter jejuni KCTC5327, Cronobacter sakazakii KCTC2949, Salmonella typhimurium ATCC14028, Salmonella enteritidis ATCC13076 was tested.
(§2) The target bacteria spectrum of the bacteriophage PBPA90 and endolysin LNT101 was confirmed by a spot test. For the spot test, bacterium sterilized in 4 ml top agar (1% Tryptone, 0.5% Yeast extract, 0.5% NaCl, 0.7% agar) of 1×10^11 CFU/200 μl were added and poured to a LB plate. After hardening the top agar, the bacteriophage PBPA90 10 μl (1×10^8 PFU/ml) or LNT101 10 μl (2 mg/ml) was spotted, and it was incubated at 37° C. for 18 hours.

Klebsiella pneumoniae = experiment: Spot test (halo zone); set-up: key: ‘◯’ means production of the halo zone; conditions: K. pneumoniae KCTC 2261
From the text: as §1, §2

Salmonella enteritidis = experiment: Spot test (halo zone); set-up: key: ‘◯’ means production of the halo zone; conditions: S. enteritidis ATCC 13076
From the text: as §1, §2

Salmonella typhimurium = experiment: Spot test (halo zone); set-up: key: ‘◯’ means production of the halo zone; conditions: S. typhimurium ATCC 14028
From the text: as §1, §2

Pseudomonas aeruginosa = experiment: CFU reduction test (killing ability in vitro)
Protocol: For this, the endolysin LNT101 at a concentration of 0.1, 0.5, 1.0 μM and Pseudomonas aeruginosa (ATCC 13388) […] CFU were added so that the final volume was 200 μl to reaction buffer (20 mM Tris-Cl, pH 7.5) and they were left at 37° C. for […]. In 30 minutes, 1 hour and 2 hours, the number of colonies of Pseudomonas aeruginosa was confirmed, and the result was shown in FIG. 3.
In addition, that the LNT101 endolysin had the antibacterial ability in various gram negative bacterium was confirmed by a CFU reduction test, and the result was shown in Table 2 below.

[1] = system: gram negative bacterium (Pseudomonas aeruginosa (PA01; ATCC 15692) and Acinetobacter baumannii (ATCC 19606)); experiment: NPN uptake assay (outer membrane permeabilization)
Protocol: In order to evaluate the outer membrane permeabilization activity of the gram negative bacterium of the fusion polypeptide prepared in the Example 3.2, NPN uptake assay was performed. As representative gram negative bacterium, Pseudomonas aeruginosa and Acinetobacter baumannii were used for the test.
Pseudomonas aeruginosa (PA01; ATCC 15692) or Acinetobacter baumannii (ATCC 19606) was cultured by OD600=0.3 and centrifuged at 1,000 g for 10 minutes, and then it was resuspended with a ½ volume of 5 mM HEPES (Hydroxyethyl piperazine Ethane Sulfonic acid) (pH 7.2). 40 μM NPN (1-N-phenylnaphthylamine) solution (40 μM NPN in 5 mM HEPES, pH7.2) 50 μl, the test substance (LNT101, LNT102 or LNT103) 50 μl, and strain suspension solution 100 μl (total 200 μl) were added to a microplate and reacted at 37° C. for 1 hour. Then, fluorescence was measured under the condition of excitation 350 nm and emission 420 nm with a microplate reader (Infinite M200 Pro, TECAN). As a positive control group, Cecropin A (SEQ ID NO: 8), EDTA, or polymyxin B was used, and as a negative control group, 10 μM NPN solution was used. All the experiments were performed in 3 sets. […]

[2] = system: Acinetobacter baumannii (ATCC 19606); experiment: FIC index, combination of colistin and LNT103; conditions: LNT103 in combination with colistin (polymyxin E)
Protocol: The synergy effect of killing ability against gram negative bacterium by combination treatment of a polymyxin-based antibiotic having a mechanism acting on the cell membrane of bacterium and the fusion polypeptide LNT103 was confirmed. Specifically, colistin (polymyxin E) of […] was treated to a 96 well microplate column 1, and it was treated at a concentration where serial dilution was performed by ½ in columns 2-11. The LNT103 of 16 μg/ml was treated to row A, and it was treated at a concentration where serial dilution was performed by ½ in rows B-G. After that, Acinetobacter baumannii (ATCC 19606) was treated in an amount of 5×10^5 CFU/ml, total 100 μl in all wells. Then, it was cultured at 37° C. for 18 hours, and the FIC (Fractional Inhibitory Concentration) index value was calculated by the following equation: FIC index=FICA+FICB=(CA/MICA)+(CB/MICB)
(CA and CB are each concentration of substances treated in combination (polymyxin E and LNT103), and MICA and MICB are MIC of single drug,
FIC value: synergy effect <0.5; antagonism >4; additive 0.5-4)

B1: LNT101: endolysin derived from bacteriophage PBPA90, amino acid sequence SEQ ID NO: 1 (259 aa), purified with 6× His tag (protein)
chain: MGTVLKRGDRGSAVEDLQMKLRVAGYAVSADGIFGGDTEKAVRDFQASKALVVDGKVGPATLAELAKSATVPAKWEAIPFPTANKSRSAAMPTLNAVGAMTGTDSRLLATFASIESAFDYTVKASTSSATGWFQFLDATWDDMIKAHGSKYGIPKDPTRALRKDPRANALMGAEFLKGNAAVLRPVINREPSDTDLYLAHFLGAGGAKKFLSADQKTLGEVLFPKPAKANPSIFSNKGVPRTLAEIYKLFEDKVSKHRA
modifications: 6xHis tag; synthetic_Endolysin LNT101
Cronobacter sakazakii
  production of the halo zone: ◯
Klebsiella pneumoniae
  production of the halo zone: ◯
Salmonella enteritidis
  production of the halo zone: ◯
Salmonella typhimurium
  production of the halo zone: ◯
Pseudomonas aeruginosa; ATCC 13388 10^6 CFU, 0.1, 0.5, 1.0 μM, 30 minutes, 1 hour and 2 hours, 37° C.
  killing ability against Pseudomonas aeruginosa (number of colonies): had the killing ability against Pseudomonas aeruginosa in all the tested treatment dose and time
Pseudomonas aeruginosa; P. aeruginosa ATCC 13388
  CFU reduction: ◯ (‘◯’ means reduction of 0.5 log CFU or more through the CFU reduction assay)
Pseudomonas aeruginosa; P. aeruginosa ATCC 15522
  CFU reduction: ◯ (‘◯’ means reduction of 0.5 log CFU or more through the CFU reduction assay)
Pseudomonas aeruginosa; P. aeruginosa CCARM 2092
  CFU reduction: ◯ (‘◯’ means reduction of 0.5 log CFU or more through the CFU reduction assay)
Pseudomonas aeruginosa; P. aeruginosa CCARM 2134
  CFU reduction: ◯ (‘◯’ means reduction of 0.5 log CFU or more through the CFU reduction assay)
Pseudomonas aeruginosa; P. aeruginosa CCARM 2144
  CFU reduction: ◯ (‘◯’ means reduction of 0.5 log CFU or more through the CFU reduction assay)
Pseudomonas aeruginosa; P. aeruginosa CCARM 2326
  CFU reduction: ◯ (‘◯’ means reduction of 0.5 log CFU or more through the CFU reduction assay)
Pseudomonas aeruginosa; P. aeruginosa F141
  CFU reduction: ◯ (‘◯’ means reduction of 0.5 log CFU or more through the CFU reduction assay)
Pseudomonas aeruginosa; P. aeruginosa PAO1
  CFU reduction: ◯ (‘◯’ means reduction of 0.5 log CFU or more through the CFU reduction assay)

B2: LNT103: fusion polypeptide [Cecropin A]-[linker (GSGSGS)]-[endolysin LNT102]; SEQ ID NO: 15 (MAS, His tag) used in the tests (protein)
chain: MASKWKLFKKIEKVGQNIRDGIIKAGPAVAVVGQATQIAKGSGSGSMGTVLKRGDRGSAVEDLQMKLNVAGYNLSADGIFGGDTEKAVRDVQAGAGLVVDGKVGPKTLYAIAKSATVPAKWEAIPFPTANKSRSAAMPTLNAVGAMTGVDSRLLATFASIESAFDYTVKAKTSSATGWFQFLDATWDDMIKAYGSKYGIPKDPTRALRKDPRANALMGAEFIKGNAAVLRPVINREPSDTDLYLAHFLGAGGAKKFLSADQKTLGEVLFPKPAKANPSIFSNKGVPRTLAEIYKLFEDKVSKHRALEHHHHHH
modifications: synthetic_Fusion Polypeptide LNT103 with MAS, His tag, and extra sequence
[1]; 2 μM, 37° C. 1 hour, compared with LNT101, LNT102, cecropin A 2 μM, polymyxin B 2 μM, EDTA 1 mM
  outer membrane permeabilization activity (NPN uptake, fold change over control): higher outer membrane permeabilization activity against gram negative bacterium than the polypeptides LNT101 and LNT102 at the same concentration
[1]; LNT103 0.29 μM, 0.88 μM, 2.65 μM
  outer membrane permeabilization activity (NPN uptake, fold change over negative control): increased in a concentration-dependent manner
[2]; 5×10^5 CFU/ml, 37° C. 18 hours
  FIC index value: 0.375
[2]; synergy effect <0.5
  interaction of the two substances by FIC index: there was a synergy effect between the two substances
